Results from article PMC3870192.

How the values were obtained:
Experiment in all cases: purified protein
Assay type in all cases: biochemical, Plenodomus lingam
Settings in all cases: 1 mM [1-14C]DMAPP, 100 mM Tris-HCl pH 8.0, 2% glycerol, 30 °C
[1] = tested on: COc1cccc2[nH]cc(C[C@H](N)C(=O)O)c12
[2] = tested on: N[C@@H](Cc1c[nH]c2ccccc12)C(=O)O
[3] = tested on: Cc1cccc2c(C[C@H](N)C(=O)O)c[nH]c12

Substance: SirD (tyrosine O-prenyltransferase; dimethylallyltyrosine synthase) (Plenodomus lingam)
- Km [1]: 5100 ± 2000 µM
- kcat/Km [1]: 2.5 M⁻¹ s⁻¹
- Km [2]: 370 ± 60 µM
- kcat [2]: 0.095 ± 0.002 s⁻¹
- kcat/Km [2]: 260 M⁻¹ s⁻¹
- Km [3]: 2000 ± 400 µM
- kcat/Km [3]: 6.5 M⁻¹ s⁻¹
